# T1: Rv0078 (Mycobacterium tuberculosis, UniProt O53623 1-201)
# T1 sequence: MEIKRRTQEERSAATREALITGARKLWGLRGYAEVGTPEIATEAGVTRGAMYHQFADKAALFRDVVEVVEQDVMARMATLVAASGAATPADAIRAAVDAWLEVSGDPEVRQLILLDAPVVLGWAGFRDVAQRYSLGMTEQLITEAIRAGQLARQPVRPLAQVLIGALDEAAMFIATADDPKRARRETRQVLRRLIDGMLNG
# B1: Rv0078-His6 (TetR-like transcriptional repressor Rv0078) (natural protein)
# chain: T1 sequence
# notes: also called LoaR; EthR2; not shown: His6, C-terminal, kept
# B2: 23-mer operator duplex (dsDNA)
# DNA 1: TTTACAAGCAGACTGCCGGTAAC
# DNA 2: GTTACCGGCAGTCTGCTTGTAAA
# B3: +13/-8 DNA probe (ITC) (dsDNA)
# DNA 1: TTACAAGCAGACTGCCGGTAA
# DNA 2: TTACCGGCAGTCTGCTTGTAA
# Columns and labels:
# [1] = target: the molecule itself; experiment: crystal structure; DNA-free Rv0078, C2 space group crystals, sitting-drop vapor diffusion at 20°C, 0.1 M sodium cacodylate pH 6.4, 1.3 M lithium sulfate; 1.85 Å
# Rv0078 [2] = target: T1, Rv0078; experiment: crystal structure; […], room temperature 30 min; […], buffer not stated; conditions: protein: recombinant; tags: C-terminal His6; chain copies: 4; blunt
# Rv0078 [3] = target: T1, Rv0078; experiment: ITC; […], room temperature 30 min; […], buffer not stated; conditions: protein: recombinant; tags: C-terminal His6; chain copies: 4
binder,measurement,setting,value
B1,stoichiometry N,[1],2
B2,binding result,Rv0078 [2],binds
B3,Kd,Rv0078 [3],357 nM
